Measured values published in patent US20210196796A1 (SYNTHEKINE, published 2021).
Residue numbers refer to the chain shown, from its start. Numbers in names are those of the source.

T1: orthogonal hCD122 receptor (hoRb), hCD122 with H133D and Y134F (human, UniProt P14784 27-550)
T1 sequence: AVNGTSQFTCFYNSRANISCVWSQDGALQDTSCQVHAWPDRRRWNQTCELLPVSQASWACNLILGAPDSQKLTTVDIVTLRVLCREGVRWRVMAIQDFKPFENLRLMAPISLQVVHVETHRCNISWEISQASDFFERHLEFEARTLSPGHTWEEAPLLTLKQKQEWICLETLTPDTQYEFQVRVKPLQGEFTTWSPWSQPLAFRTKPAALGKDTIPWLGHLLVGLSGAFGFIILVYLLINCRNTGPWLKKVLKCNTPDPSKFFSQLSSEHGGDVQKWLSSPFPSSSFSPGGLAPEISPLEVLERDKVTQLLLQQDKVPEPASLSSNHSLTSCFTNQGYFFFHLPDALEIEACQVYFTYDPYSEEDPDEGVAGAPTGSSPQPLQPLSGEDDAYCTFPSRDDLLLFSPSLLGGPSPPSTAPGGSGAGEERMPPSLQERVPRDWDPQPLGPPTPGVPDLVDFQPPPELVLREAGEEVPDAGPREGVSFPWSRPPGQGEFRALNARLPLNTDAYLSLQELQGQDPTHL

B1: SQVLAA (ligand)
chain: APTSSSTKKTQLQLSQLLVLLAAILNGINNYKNPKLTRMLTFKFYMPKKATELKHLQCLEEELKPLEEVLNLAQSKNFHLRPRDLISNINVIVLELKGSETTFMCEYADETATIVEFLNRWITFCQSIISTLT
B2: SQVLLA (ligand)
chain: B1 chain with A22L
B3: SQVLMA (ligand)
chain: B1 chain with A22M
B4: SQVLWA (ligand)
chain: B1 chain with A22W
B5: SQVLSA (ligand)
chain: B1 chain with A22S
B6: SQVLVA (ligand)
chain: B1 chain with A22V
B7: SQVLIA (ligand)
chain: B1 chain with A22I
B8: SQVLYA, E116G (ligand)
chain: B1 chain with A22Y
B9: SQVLHA (ligand)
chain: B1 chain with A22H
B10: SQVLRA (ligand)
chain: B1 chain with A22R
B11: SQVLNA (ligand)
chain: B1 chain with A22N
B12: SQVLDA (ligand)
chain: B1 chain with A22D
Wherever Relative Proliferation Fold Change 3F8 1:10 is given: reference of the scale not given here.
Wherever Relative Proliferation Fold Change 3F8 1:2 is given: reference of the scale not given here.
Wherever Relative Proliferation Fold Change 3F8 1:50 is given: reference of the scale not given here.
Wherever Relative Proliferation Fold Change NKL 1:10 is given: reference of the scale not given here.
Wherever Relative Proliferation Fold Change NKL 1:2 is given: reference of the scale not given here.
Wherever Relative Proliferation Fold Change NKL 1:50 is given: reference of the scale not given here.

These binders were tested against T1, orthogonal hCD122 receptor (hoRb), … (assay: cell-based or functional assay).
For B1, the “NKL Ortho Proliferation Signal 1:2” value was 14600, the “NKL Ortho Proliferation Signal 1:10” value was 11800 and the “NKL Ortho Proliferation Signal 1:50” value was 9400. For the same binder, the “Relative Proliferation Fold Change NKL 1:2” value was 1.05 fold, the “Relative Proliferation Fold Change NKL 1:10” value was 0.72 fold and the “Relative Proliferation Fold Change NKL 1:50” value was 0.62 fold. For B2, the “NKL Ortho Proliferation Signal 1:2” value was 16400, the “NKL Ortho Proliferation Signal 1:10” value was 16100 and the “NKL Ortho Proliferation Signal 1:50” value was 8570. The “Relative Proliferation Fold Change NKL 1:2” value was 1.5 fold, the “Relative Proliferation Fold Change NKL 1:10” value was 1.06 fold and the “Relative Proliferation Fold Change NKL 1:50” value was 0.59 fold. For B3, the “NKL Ortho Proliferation Signal 1:2” value was 20500, the “NKL Ortho Proliferation Signal 1:10” value was 18600 and the “NKL Ortho Proliferation Signal 1:50” value was 11000. The “Relative Proliferation Fold Change NKL 1:2” value was 1.4 fold, the “Relative Proliferation Fold Change NKL 1:10” value was 1.07 fold and the “Relative Proliferation Fold Change NKL 1:50” value was 0.65 fold. For B4, the “NKL Ortho Proliferation Signal 1:2” value was 14000, the “NKL Ortho Proliferation Signal 1:10” value was 11100 and the “NKL Ortho Proliferation Signal 1:50” value was 8870. The “Relative Proliferation Fold Change NKL 1:2” value was 1.14 fold, the “Relative Proliferation Fold Change NKL 1:10” value was 0.66 fold and the “Relative Proliferation Fold Change NKL 1:50” value was 0.54 fold. With B5 the “NKL Ortho Proliferation Signal 1:2” value was 16000, the “NKL Ortho Proliferation Signal 1:10” value was 13000 and the “NKL Ortho Proliferation Signal 1:50” value was 7840. The “Relative Proliferation Fold Change NKL 1:2” value was 2.1 fold, the “Relative Proliferation Fold Change NKL 1:10” value was 1.25 fold and the “Relative Proliferation Fold Change NKL 1:50” value was 0.77 fold. For B6, the “NKL Ortho Proliferation Signal 1:2” value was 10800, the “NKL Ortho Proliferation Signal 1:10” value was 8600 and the “NKL Ortho Proliferation Signal 1:50” value was 6590. For the same binder, the “Relative Proliferation Fold Change NKL 1:2” value was 0.83 fold, the “Relative Proliferation Fold Change NKL 1:10” value was 0.62 fold and the “Relative Proliferation Fold Change NKL 1:50” value was 0.51 fold. With B7 the “NKL Ortho Proliferation Signal 1:2” value was 13000, the “NKL Ortho Proliferation Signal 1:10” value was 10700 and the “NKL Ortho Proliferation Signal 1:50” value was 6780. The “Relative Proliferation Fold Change NKL 1:2” value was 1.11 fold, the “Relative Proliferation Fold Change NKL 1:10” value was 0.78 fold and the “Relative Proliferation Fold Change NKL 1:50” value was 0.53 fold. In the case of B8, the “NKL Ortho Proliferation Signal 1:2” value is reported as 13200, the “NKL Ortho Proliferation Signal 1:10” value is reported as 11600 and the “NKL Ortho Proliferation Signal 1:50” value is reported as 8390. For the same binder, the “Relative Proliferation Fold Change NKL 1:2” value was 1.21 fold, the “Relative Proliferation Fold Change NKL 1:10” value was 0.83 fold and the “Relative Proliferation Fold Change NKL 1:50” value was 0.63 fold. In the case of B9, the “NKL Ortho Proliferation Signal 1:2” value is reported as 53000, the “NKL Ortho Proliferation Signal 1:10” value is reported as 26000 and the “NKL Ortho Proliferation Signal 1:50” value is reported as 13300. For the same binder, the “Relative Proliferation Fold Change NKL 1:2” value was 3.46 fold, the “Relative Proliferation Fold Change NKL 1:10” value was 1.63 fold and the “Relative Proliferation Fold Change NKL 1:50” value was 0.87 fold. B10 was tested, and the “NKL Ortho Proliferation Signal 1:2” value was 60800, the “NKL Ortho Proliferation Signal 1:10” value was 68400 and the “NKL Ortho Proliferation Signal 1:50” value was 34300. For the same binder, the “Relative Proliferation Fold Change NKL 1:2” value was 4.33 fold, the “Relative Proliferation Fold Change NKL 1:10” value was 4.06 fold and the “Relative Proliferation Fold Change NKL 1:50” value was 2.28 fold. For B11, the “NKL Ortho Proliferation Signal 1:2” value was 50600, the “NKL Ortho Proliferation Signal 1:10” value was 36500 and the “NKL Ortho Proliferation Signal 1:50” value was 17300. For the same binder, the “Relative Proliferation Fold Change NKL 1:2” value was 4.55 fold, the “Relative Proliferation Fold Change NKL 1:10” value was 3 fold and the “Relative Proliferation Fold Change NKL 1:50” value was 1.4 fold. For B12, the “NKL Ortho Proliferation Signal 1:2” value was 35100, the “NKL Ortho Proliferation Signal 1:10” value was 22700 and the “NKL Ortho Proliferation Signal 1:50” value was 11600. The “Relative Proliferation Fold Change NKL 1:2” value was 2.55 fold, the “Relative Proliferation Fold Change NKL 1:10” value was 1.65 fold and the “Relative Proliferation Fold Change NKL 1:50” value was 0.95 fold.

Biological target: T1, orthogonal hCD122 receptor (hoRb), …
Assay: cell-based or functional assay
Remark: another data set of the same source
In the case of B1, the “3F8 Ortho Proliferation Signal 1:2” value is reported as 15900 cts/min, the “3F8 Ortho Proliferation Signal 1:10” value is reported as 7290 cts/min and the “3F8 Ortho Proliferation Signal 1:50” value is reported as 2940 cts/min. The “Relative Proliferation Fold Change 3F8 1:2” value was 69.2 fold, the “Relative Proliferation Fold Change 3F8 1:10” value was 10.1 fold and the “Relative Proliferation Fold Change 3F8 1:50” value was 4.29 fold. With B2 the “3F8 Ortho Proliferation Signal 1:2” value was 19700 cts/min, the “3F8 Ortho Proliferation Signal 1:10” value was 9730 cts/min and the “3F8 Ortho Proliferation Signal 1:50” value was 3150 cts/min. For the same binder, the “Relative Proliferation Fold Change 3F8 1:2” value was 59.8 fold, the “Relative Proliferation Fold Change 3F8 1:10” value was 13 fold and the “Relative Proliferation Fold Change 3F8 1:50” value was 4.68 fold. With B3 the “3F8 Ortho Proliferation Signal 1:2” value was 20800 cts/min, the “3F8 Ortho Proliferation Signal 1:10” value was 11100 cts/min and the “3F8 Ortho Proliferation Signal 1:50” value was 3800 cts/min. For the same binder, the “Relative Proliferation Fold Change 3F8 1:2” value was 63.3 fold, the “Relative Proliferation Fold Change 3F8 1:10” value was 14.5 fold and the “Relative Proliferation Fold Change 3F8 1:50” value was 5.92 fold. In the case of B4, the “3F8 Ortho Proliferation Signal 1:2” value is reported as 7840 cts/min, the “3F8 Ortho Proliferation Signal 1:10” value is reported as 4470 cts/min and the “3F8 Ortho Proliferation Signal 1:50” value is reported as 714 cts/min. The “Relative Proliferation Fold Change 3F8 1:2” value was 14.6 fold, the “Relative Proliferation Fold Change 3F8 1:10” value was 3.35 fold and the “Relative Proliferation Fold Change 3F8 1:50” value was 0.92 fold. B5 was tested, and the “3F8 Ortho Proliferation Signal 1:2” value was 22000 cts/min, the “3F8 Ortho Proliferation Signal 1:10” value was 14500 cts/min and the “3F8 Ortho Proliferation Signal 1:50” value was 4060 cts/min. For the same binder, the “Relative Proliferation Fold Change 3F8 1:2” value was 117 fold, the “Relative Proliferation Fold Change 3F8 1:10” value was 23.9 fold and the “Relative Proliferation Fold Change 3F8 1:50” value was 6 fold. For B6, the “3F8 Ortho Proliferation Signal 1:2” value was 8530 cts/min, the “3F8 Ortho Proliferation Signal 1:10” value was 5590 cts/min and the “3F8 Ortho Proliferation Signal 1:50” value was 1850 cts/min. The “Relative Proliferation Fold Change 3F8 1:2” value was 20.2 fold, the “Relative Proliferation Fold Change 3F8 1:10” value was 9.6 fold and the “Relative Proliferation Fold Change 3F8 1:50” value was 2.1 fold. B7 was tested, and the “3F8 Ortho Proliferation Signal 1:2” value was 18600 cts/min, the “3F8 Ortho Proliferation Signal 1:10” value was 10500 cts/min and the “3F8 Ortho Proliferation Signal 1:50” value was 3500 cts/min. For the same binder, the “Relative Proliferation Fold Change 3F8 1:2” value was 0.45 fold, the “Relative Proliferation Fold Change 3F8 1:10” value was 1.2 fold and the “Relative Proliferation Fold Change 3F8 1:50” value was 0.77 fold. In the case of B8, the “3F8 Ortho Proliferation Signal 1:2” value is reported as 12500 cts/min, the “3F8 Ortho Proliferation Signal 1:10” value is reported as 8030 cts/min and the “3F8 Ortho Proliferation Signal 1:50” value is reported as 2510 cts/min. For the same binder, the “Relative Proliferation Fold Change 3F8 1:2” value was 29.7 fold, the “Relative Proliferation Fold Change 3F8 1:10” value was 9.79 fold and the “Relative Proliferation Fold Change 3F8 1:50” value was 2.73 fold. In the case of B9, the “3F8 Ortho Proliferation Signal 1:2” value is reported as 32600 cts/min, the “3F8 Ortho Proliferation Signal 1:10” value is reported as 35100 cts/min and the “3F8 Ortho Proliferation Signal 1:50” value is reported as 19100 cts/min. For the same binder, the “Relative Proliferation Fold Change 3F8 1:2” value was 80.2 fold, the “Relative Proliferation Fold Change 3F8 1:10” value was 56.4 fold and the “Relative Proliferation Fold Change 3F8 1:50” value was 25.8 fold. For B10, the “3F8 Ortho Proliferation Signal 1:2” value was 33400 cts/min, the “3F8 Ortho Proliferation Signal 1:10” value was 32300 cts/min and the “3F8 Ortho Proliferation Signal 1:50” value was 19600 cts/min. For the same binder, the “Relative Proliferation Fold Change 3F8 1:2” value was 43 fold, the “Relative Proliferation Fold Change 3F8 1:10” value was 38.8 fold and the “Relative Proliferation Fold Change 3F8 1:50” value was 30.2 fold. For B11, the “3F8 Ortho Proliferation Signal 1:2” value was 32600 cts/min, the “3F8 Ortho Proliferation Signal 1:10” value was 35100 cts/min and the “3F8 Ortho Proliferation Signal 1:50” value was 19100 cts/min. The “Relative Proliferation Fold Change 3F8 1:2” value was 80.2 fold, the “Relative Proliferation Fold Change 3F8 1:10” value was 56.4 fold and the “Relative Proliferation Fold Change 3F8 1:50” value was 25.8 fold. For B12, the “3F8 Ortho Proliferation Signal 1:2” value was 33400 cts/min, the “3F8 Ortho Proliferation Signal 1:10” value was 32300 cts/min and the “3F8 Ortho Proliferation Signal 1:50” value was 19600 cts/min. The “Relative Proliferation Fold Change 3F8 1:2” value was 43 fold, the “Relative Proliferation Fold Change 3F8 1:10” value was 38.8 fold and the “Relative Proliferation Fold Change 3F8 1:50” value was 30.2 fold.
